Results: patent US20110104667

Molecular target: infectious prion protein PrPCWD (CWD prion, elk strain E2) (Cervus canadensis (elk)?) (UniProt P67986)
Assay: EMSA
Set-up: unit not given here

infectious prion protein PrPCWD (CWD prion, elk strain E2) (Cervus canadensis (elk)?), sequence (P67986 25-233): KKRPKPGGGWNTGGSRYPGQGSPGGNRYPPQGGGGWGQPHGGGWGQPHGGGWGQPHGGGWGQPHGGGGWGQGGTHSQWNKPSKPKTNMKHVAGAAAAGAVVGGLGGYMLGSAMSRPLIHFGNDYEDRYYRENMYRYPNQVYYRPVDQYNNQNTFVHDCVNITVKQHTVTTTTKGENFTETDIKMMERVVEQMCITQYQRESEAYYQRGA

## TACGACTCACTATAGGGATCCNNNNNNNNNNNNNNNNNNNNNNNNNNNNGAATTCCCTTTAGTGAGGGTT [70-mer DNA randomer library, PrPCWD-retained fraction]
  Kd: 6e-05
